According to the supplement of paper PMC12636428:

The sequences below were run on Saccharomyces cerevisiae (assay: transcriptional activation domain activity (GFP:mCherry ratio, weighted mean of sorted bins, harmonized to initial dataset scale) (arbitrary fluorescence ratio units); higher = stronger transcriptional activation). Details: beta-estradiol 1 µM; induction time 4 h.
Method: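 53-aa protein tiles (fungal proteins plus yeast TF control tiles) fused C-terminally to a DBD-estrogen-binding domain-mCherry synthetic TF, integrated in S. cerevisiae (URA3 locus) with a GFP reporter. Cells were induced with 1 uM beta-estradiol for 4 h at 30 C, FACS-sorted into 8 bins by GFP:mCherry ratio and barcodes sequenced. Activity is the read-weighted mean bin fluorescence (GFP:mCherry), averaged over barcodes (median 12); tiles under 50 reads were discarded. New active-learning values were harmonized by linear fit onto the scale of the initial (Hummel et al.) dataset. The assay saturates at low and high signal.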

Row | Sequence | transcriptional activation domain activity
1 | AKNLHLHILRHPSKWMKLYFYLWPLIVFYHIPLQSFFDFNAVFMLLQVARFPN | 50100
2 | MREYIRFYFDTLHSSRVFVVWLLTHVLFLEKDRLKAMFAKDEFNGIEEIKMRY | 24900
3 | KAFRLVHGILQRSHPRTLDRLFSSMLWLLHNGLTEVALLLRDYIRSLSIRLTS | 53000
4 | MNLLFITFFLLVMWVVWFICVVVPFFLLLLLCFFSFLFFRLFGAGWLGWVGNF | 42500
5 | MIASHPSPFLSRLFGLPLLFFSSFIEVSLFFLFFLPSLRFLFFFFPSLALFFF | 42700
6 | IMYTSHHDPKHCFEETRDGTLKVHVIGDWLPRGIFGKMYILFAILRQLVLVLW | 74900
7 | DADEAEGAPDAAGEGAAKKKKKRKPRKKKKGGAGGGGGGGPKVQTSPPRVPIH | 11400
8 | MYFVYTYSGLAFFFFFSFFWCTSIYLNILLVLFYLALGFCKVYFLLLFYLPKT | 39900
9 | LLGMFAQLAFADYVMTPSQARLALFVFERLLKLLRAAPYPCVRVAILQLLMWL | 45500
10 | YCAINCGGIDGLSLFMKIQWIANLDYLDIELLFGGIYYYFVCLLLVLLLLLWL | 42700
11 | MRAAMDICVLIKMPCPLLKHTPFFTCAVTMAAVVYLSYWSFIATETGDDVIRE | 46700
12 | KATYHAMLHICRDIAKETLFFFHLVQEHPDDLPLVQSVLILLISCISRVVCTL | 55000
13 | IKKGAASPSKKGGRGSAKAKKEESDDEDVKPAKKAKGAAAAKGKPKGKALKKE | 24200
14 | MGKKRCLERILFLFLYAILFHILLLLLPSFPFLYLYTFAFVFYFSLSIYLVSL | 43600
15 | MLHLAALSPLMLLVFLLFSLFFKFFATFIWLYIMAYILITTLIIVFRITLPAN | 68500
16 | VAEDLFERVRLDWLILFDLRMWKKVRCDLRSLYISTVVTIPEFKRVLGLRFAG | 37300
17 | LTEVTSPRFIASIIACLCNHFAWFFYFIDPHHYHALFTPVEICLFFLVVVWFV | 52100
18 | AKSAKGGSRRKSAATSTRTSAPRRSTGNDTGRSFKPAKDARGSSSGDAEDKIK | 37200
19 | MCCEAEWKREVVQDHKFDFINVSEFHRTDILTRLKYVWKYILILKAFAVMGLD | 53700
20 | SITILVNIFLLHGSVKFIQKCLQYIGYIAEEVRSSLPLHKCLYWPLLIMLRLL | 45200
21 | AGEAPIAEGQQAQEARPAAEGAGAGTENQPGRAEGEAAKAEAQAEQQQQQGQA | 10300
22 | AAEEAAVADGECPSKKKRQAELSKQISAKWKGLSPEDRRYWDTLAKEKKREHE | 19500
23 | APPPPQPAPPVSVAPSKKTSKSKVDAPASNNEPEPVSAPKKGRKGKSKAIAQT | 12200
24 | KEKEVKAEVEEDGSEQEEGEGEEEEEGATRSSARKGKGRATAGGRKTRRGAAG | 19400
25 | KQYCVRPNSGRIEGGGEVEVQVLLQAMKEDPPLDAKCKDKFLVQSVAVAADRE | 46900
26 | VVENHKREVQYARYHCLKSWRLTLDVCLKRAFHLVPTVGRHELLISMLQAIIG | 37300
27 | GKKSSGKKSGSSKKTKKDKKAEKDKTAADEKEKEEVKEKETGAEGEKTPEHSE | 37700

Row | Sequence | transcriptional activation domain activity
28 | VLLVLPLFFSFSLYHPLRLHPFRLFFFFFFFFLCIFFYFSPFPSFSCHFLFSS | 59100
29 | RLCYERFILCLICLPILYLPLVLILGIFIALSLTYIIFISFDPIISSMWYLAL | 68400
30 | LLTFLLFSIFFFERLPHLYRSISLLLRPCFRLNIHFIFLILSRVFMYGSYGSF | 55300
31 | MCVHVCLMFCSLLLSLSPFFFFHDLFLFLYTFSFSLSCFTPSYFSMFSSIPSS | 76200
32 | ICFSPPLISCGGFFPSDLLPFLFHSFSFYFLTCWLPVYFLPPLFVACFFICLP | 60100
33 | MLFFHQDTVVGQLFTRYTALIVLIFKSSSVLVFVLFLFFFFFFWPIRILVSFI | 37100
34 | AVVILGDLHPRGYNSNWFLMYYTGWLTFIFFITLLWALANLAWLRYTARVLPC | 29300
35 | MSFFLSFFVLFCFYFYFTPCLFFSSHLLTFFFFSDSPLFVFYFFYFFFSSFVY | 67700
36 | AQPSAGFGQPSTIGAKPNPFGAPAFGQPAQPAGPAFGQPSQPTTTAAFGQPSQ | 29900
37 | MATLDVFLRVYCFTLSFLLFLFLIIIFILAYSAFAVDFFFLFVYSSTIELCFI | 36200
38 | RSSRRDRDEDENERHSRHRRENRRRSHSSDERHGDARRRDEKSRHHRSSRHER | 17900
39 | MAPFSPFVYFFLFLVHNSWLFCFLLVCFPFFSILVFLSFCPFLSPFTSRFSFL | 56600
40 | MRILQFFSFLYLLLYFSRTLLIVIYTLVILLLNQLLVFFKFLSLFFAFFWYVF | 41400
41 | YHTRNRLLLLCAQAHELAVLGVRELARCLRYLPKVHYMPVHWSTIFTWAEFCA | 75600
42 | NSTVHNLIELIPLQQLCGFCCFSMRFVVFLDLLSTVVQPVIVGYIVYLIVILT | 60200
43 | VLYPLWPLKMRQGVYYLSWGFLCLLGLFFLMAIFRVILFCITYFVVSPGLWLF | 34400
44 | EVDEAAVKMVKRARRERRAAEKEASGEAEHAAGVEKKPKRRSSRKKKEEGEGG | 31400
45 | VSPQIYYGSRLLGSGGLGLYFLRLPSLPCRTVVEILNTFLFFVMISYLQILLY | 46400
46 | GVDERRAIVESFVKRVTHKYLRHCDPSEPVLLLSSLVIKLIFARFWLLVYRPQ | 44900
47 | IHRLTFFFFFCFFFFFFCLFSFSVSFFFFLFFFFLFSTSLLARRFLSLFSSVA | 50100
48 | VGSLVYVTRYSEHLLVSGEFGPELLGAGAYYGGMLWFFFSSQNYRLLFHWQFW | 49800
49 | MVLLLLLDYNVFCHFNFAVHLYLLPFINKFKRIVLGHLIFLWNYLVQVVVVSP | 67600
50 | GIPVKAYPPNGVYPFSGLSCYAMIVSFLHSELDMVYMTFRELYARYFHHLHTI | 70500
51 | ALLNGQCGGANYTGPTVCVCGLNIIQGFMRIRKCSSLYMIVLALKLIFITFFS | 90200
52 | HFVELSTILGIIILHSPAICLQVVLLLFCGLHSVVVALMLDRVPPLIYLAFFV | 66100
53 | MVILLLFFVFRVNFVIVLAVSIPRQASFHVIHRFTYLLRRLQDMLNTTHRYAA | 40500
54 | ETEGAEETSDAEGNESAGKQKKRARKSSHASSRSRTGAQNKKSTVEQKSTFRG | 51600

Row | Sequence | transcriptional activation domain activity
55 | HQVYTDWLYLWCLTYFARAHDQVLIILKKSLKHIPIVGWGMQFFRFLFLARSW | 31700
56 | AAGASTTAQVSKKRQVLLRVNNRTYTRIDCIGRGGSGKVYRVSAESGKMLALK | 62100
57 | YTLILSLFYSLAPVLFRLSSAAFFNISLLTGSFWGVAIGVKVFHLSIHWMYPI | 42600
58 | NEITIQDLNFLQFSSIPKLWENKTLEPGEEYHHSNGTNTDNNETTGADDTDDN | 24500
59 | IGTSSTGDLECCLFTLLLFSWFWGLQTFLSICYYYGSFVSQAFFFFFHFFFFW | 53800
60 | MTGTTLLPPPFISNDVTNSADSTNIKPSPSSSVDNLNDYLTDINSLAWGVNSL | 67600
61 | KFVDLGIFKAEGTRLRCRMCGFLIASLVLCMHMSQACPMYPRYPSSNMHEHPD | 29300
62 | QKPEAAANATAVGEKKEVEEELKKVVEAKPEGKTEAGPAKEEGKAAEAAPAKA | 52800
63 | RISPGFIKKRRSSQTRQDEDHWQRVRELENQSSLYYLPIHEETPFFIDLIPNG | 76200
64 | NLYGNDEEVLFYEDNYNPKMQWSLQDNSAAINNEDARAIFNNEFDSDDDDISD | 86600
65 | EAERERLEREVEAENVRKAEEERKEKERLVKEARERAAREAAEREAAAAAAAA | 52700
66 | RGDEDADGDDDEGEGSGDKTGDAEAGAAPSSGAGGGSSNSKKNKKKKNKKKGK | 51900
67 | MPFRNCFACIICCSWLLYLDVLLILSMYSIYFMGGFARYLFWFIYWFFGIMEL | 44800
68 | EEDAGATSEPASTPKLKPETKPKPKAAPKPKPKAEETDSSAKPKAKPKARASS | 33000
69 | SVTSTEELEITVETLRELAAHPAVIKGKQCRELRGAVHEFRQACTTGVNAAGT | 53600
70 | ALRREYLTLNGFMPSRINWAIQSSGVDYLHLLIIAMEHLITRFRLSARLAITV | 53800
71 | RRRFHRRVTGCNCGVKTYKLGESYNDEFESTYLSYYACRICLLVTSLYIARFW | 44500
72 | VNDAARILLAGLLEIKYTIREHLKSMFGSPWIIMYWRNWSGPLNITLELLGKC | 45200
73 | VNHIVAYITLGIVGFCFLSYITLTLMPLIFHDCPYYTPFTSLLWYSAQIIPFF | 33600
74 | LKALQLGCYNYFLLGGSCVSGPVGLLAGIIRQPLVLFYHFFSVALYAIWLRVA | 81200
75 | MAGVGYYDLKQLMMVFLLVWLLAICVGPWYQGCFSPSFLLFCFYQPYIFISFL | 52900
76 | VEQYLHLLPPHSLQEIRWRWRMTKVSRPIPEKMKLVRLNLKAVKHIHLFMKSA | 31500
77 | VRDMPQADPGADRAFDASLESSMRKLLDGLAGTSWPAKTSVWVSKLRIACNHV | 61200
78 | GMEGERVKESIRRVQHQGADELYRRSQEKNGKGLRLSQSKTRSRGETPLQLIA | 63100
79 | RCQAVTVSDEVYSKLRCSSGHSGSGLLFMLIWIRIWKTLVIAYSGFSWREYLY | 88100
